Results on one molecule are retold here after article PMC3715890 (2013).

The test has as its target HIF-1alpha PAS-B (235-350) (Homo sapiens, UniProt Q16665). Kind of test: ITC. For orientation: Isothermal titration calorimetry measures the heat released or taken up as one component is titrated into another.

HIF-1alpha PAS-B (235-350), sequence (Q16665 235-350): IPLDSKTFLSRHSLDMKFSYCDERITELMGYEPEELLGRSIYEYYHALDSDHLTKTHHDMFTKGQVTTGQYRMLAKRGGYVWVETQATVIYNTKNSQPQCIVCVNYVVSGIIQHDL

B1: P1 (Tat-cyclo-CLLFVY) (peptide)
chain: cyclo(C(S‑S‑Tat)LLFVY)
For the molecule B1, binding was characterised by a dissociation constant (Kd) of 124 nM. That is a sub-micromolar value.
